This note sets out measurements from patent US20250339504A1, “CANCER VACCINE WITH USE OF COMMON CANCER ANTIGEN COCKTAIL, TCR/CAR-T CELL THERAPEUTIC, COMPANION DIAGNOSTIC METHOD, AND METHOD FOR DIAGNOSING RISK OF CANCER ONSET BY DETECTING CIRCULATING TUMOR CELLS” (National Cancer Center, priority 2022, published 2025).

B1: 10G7: HLA-A2-restricted T cell clone/TCR recognizing HSP105-derived peptide; SEQ ID NO: 197, 198 (protein, listed as Homo sapiens)
chain 1: MWGVFLLYVSMKMGGTTGQNIDQPTEMTATEGAIVQINCTYQTSGFNGLFWYQQHAGEAPTFLSYNVLDGLEEKGRFSSFLSRSKGYSYLLLKELQMKDSASYLCAVRALREAGTALIFGKGTTLSVSS
chain 2: MDTWLVCWAIFSLLKAGLTEPEVTQTPSHQVTQMGQEVILRCVPISNHLYFYWYRQILGQKVEFLVSFYNNEISEKSEIFDDQFSVERPDGSNFTLKIRSTKLEDSAMYFCASSQNREAFFGQGTRLTVV
B2: 10C9: HLA-A2-restricted T cell clone/TCR recognizing HSP105-derived peptide; SEQ ID NO: 202, 203 (protein, listed as Homo sapiens)
chain 1: MSLSSLLKVVTASLWLGPGIAQKITQTQPGMFVQEKEAVTLDCTYDTSDPSYGLFWYKQPSSGEMIFLIYQGSYDQQNATEGRYSLNFQKARKSANLVISASQLGDSAMYFCAMRDRNTGNQFYFGTGTSLTVIP
chain 2: MGFRLLCCVAFCLLGAGPVDSGVTQTPKHLITATGQRVTLRCSPRSGDLSVYWYQQSLDQGLQFLIQYYNGEERAKGNILERFSAQQFPDLHSELNLSSLELGDSALYFCASSVEVYNEQFFGPGTRLTVL
B3: 7B9: HLA-A2-restricted T cell clone/TCR recognizing HSP105-derived peptide; SEQ ID NO: 195, 196 (protein, listed as Homo sapiens)
chain 1: METLLGVSLVILWLQLARVNSQQGEEDPQALSIQEGENATMNCSYKTSINNLQWYRQNSGRGLVHLILIRSNEREKHSGRLRVTLDTSKKSSSLLITASRAADTASYFCATDTGGAQKLVFGQGTRLTINP
chain 2: MDSWTLCCVSLCILVAKHTDAGVIQSPRHEVTEMGQEVTLRCKPISGHDYLFWYRQTMMRGLELLIYFNNNVPIDDSGMPEDRFSAKMPNASFSTLKIQPSEPRDSAVYFCASSPDRGETQYFGPGTRLLVL
B4: 11B9: HLA-A2-restricted T cell clone/TCR recognizing HSP105-derived peptide; SEQ ID NO: 193, 194 (protein, listed as Homo sapiens)
chain 1: MACPGFLWALVISTCLEFSMAQTVTQSQPEMSVQEAETVTLSCTYDTSESDYYLFWYKQPPSRQMILVIRQEAYKQQNATENRFSVNFQKAAKSFSLKISDSQLGDAAMYFCAYRIPGAGSYQLTFGKGTKLSVIP
chain 2: MGTRLLCWVVLGFLGTDHTGAGVSQSPRYKVAKRGQDVALRCDPISGHVSLFWYQQALGQGPEFLTYFQNEAQLDKSGLPSDRFFAERPEGSVSTLKIQRTQQEDSAVYLCASSPGLAGGAQETQYFGPGTRLLVL

One series relates to CasKi cell line.
Experiment: not given
Conditions: not given
With B1, the cytotoxic activity entry is reported as “significant cytotoxic activity”.

Regarding B2, the cytotoxic activity entry is recorded as “significant cytotoxic activity”.

Consider B3, for which the cytotoxic activity entry is listed as “significant cytotoxic activity”.

For the next series, the system named is SW620 cell line.
Experiment: not given
Conditions: not given
Consider B1, for which the cytotoxic activity entry is listed as “No significant cytotoxic activity”.

For B2, the cytotoxic activity entry is reported as “No significant cytotoxic activity”.

For the molecule B3, the cytotoxic activity entry is given as “No significant cytotoxic activity”.

In the next series the test system is T2 cells to which the peptide had been exogenously bound.
Experiment: not given
Conditions: not given
As for B1, the “damaging (cytotoxic) activity” value is “exhibited damaging activity”.

Take B2: the “damaging (cytotoxic) activity” value is given as “exhibited damaging activity”.

In the next series the test system is SiHaA2 cell line.
Experiment: not given
Conditions: not given
Consider B1, for which the cytotoxic activity result is given as “No significant cytotoxic activity”.

For B2, the cytotoxic activity result was “No significant cytotoxic activity”.

On to B3, for which the cytotoxic activity entry is recorded as “No significant cytotoxic activity”.

In a further series the test system is T2 cells to which an HSP105-derived peptide had been exogenously bound. Kind of series: IFN-γ ELISPOT of HLA-A2-restricted HSP105-specific T cell clones. The settings on record: coculture with HLA-A2 T2 cells in the presence of the peptide, 20 hours. It is filed as cell-based. The protocol: HSP105-HLA-A2 Dextramer was not capable of being sufficiently stained, thus being unavailable for detection of binding T cells. […] CD107a-positive CD8 T cells were selected by single sorting, and cultured on allofeeder cells to establish T cell clones.
The established T cell clones were cocultured with target cells (T2 cells) to which an HSP105-derived peptide had been exogenously bound for 20 hours, and the antigen stimulation-dependent IFN-γ productions were evaluated. The antigen specificities were evaluated by using cells to which a HIV-derived peptide had been bound as a negative control.
Take B4: the “antigen-specific IFN-γ production capability” value is on record as “largely lower reactivity than the other clones”.

In the case of B1, the “antigen-specific IFN-γ production capability” value is reported as “strong IFN-γ production capability”.

In the case of B2, the “antigen-specific IFN-γ production capability” value was “strong IFN-γ production capability”.

With B3, the “antigen-specific IFN-γ production capability” value is “strong IFN-γ production capability”.
